For one molecule, fold increase of pull-down in the presence of DSP results are on record in publication PMC5508133.

The target in the assay is PfEMP1B (GFP-tagged minimal PfEMP1 construct) (P. falciparum). Description: co-IP; GFP-Trap on parasite lysates crosslinked with increasing concentrations of DSP; 1% Triton X-100, 150 mM NaCl, 50 mM Tris-HCl pH 7.4; western blot of eluates. For orientation: Immunoblotting shows a protein as a band on a membrane.

B1: ring-exported protein-1 (REX1) (natural protein)
chain: MADYSSNEEETPKEEKKISKLEDMQSPFDYKRFFRKYTIFAPFILVYFTLMFFVNSTVQNGTMLLNSIKENANSKLPALLWNKIIGKGNDNEVNFEDKKMIEGNKSGNGEEHNKHKRRQVDNQEDDYDVDEYGNPKSGAPYKSEEEHAEQQNYYGEHHGDYEDKNEYHGKSNIENNKDFPEQGQKDEEKEKEAKKKAEEFEKRKQLHEEEKRKARETQQALHKKLQEQLQRLKEQEKKKVEHQKLIHKIKTQGDVDPAVQKVLNKYNQKEKDEEQQILKIRDLQVQLRHIQQRIQSLKSTNNGQPKTKDEYLQLKDLQKEYYDKEQDEQNMIEHLEHLQGEMQYLYEELQIVYDENQAKTAQAKDEQHELKPQAEKDASKLTTTYDQTKEVKPQAEKDASKLTTTYDQTKEVKPQAEKDASKLTTTYDQTKEVKPQAEKDALAKTENQNGELLPQAEKDASKLTTTYDQTKEVKPQAEKDALAKTENQNGELLPQAEKDASKLTTTYDQTKEVKPQAEKDALAKTENQNGELLPQAEKDASKLTTTYDQTKEVKPQAEKDALAKTENQSGELLTQAEKDALAKKESEAPKGSSTSDKNTTENQLNAEAQSEVKPQWQKDYWKSKNESQTETNNTWKKDSWKKKTEEQQNAEAQQEVKSPYEKYSYNKETKPQNDKYTLNKEVKPQNEKYTYNQKVKAENTESEKSLLESSVFN
Take B1: the fold increase of pull-down in the presence of DSP was above 10 fold.
